Experimental data as given in patent US20250186597A1 (BRIGHT PEAK THERAPEUTICS, published 2025).
Numbering of substitutions follows the chain as printed. Numbers in names are those of the source. One block for each binder: values may come before it.

How the values were obtained:
[1] = molecular target: T1, IL-18R on HEK-Blue IL18R reporter cells (InvivoGen, #hkb-hmi118) (UniProt Q13478 19-541; O95256 20-599, limits assumed); experiment: cell-based or functional assay
T1 sequence (looked up) 1: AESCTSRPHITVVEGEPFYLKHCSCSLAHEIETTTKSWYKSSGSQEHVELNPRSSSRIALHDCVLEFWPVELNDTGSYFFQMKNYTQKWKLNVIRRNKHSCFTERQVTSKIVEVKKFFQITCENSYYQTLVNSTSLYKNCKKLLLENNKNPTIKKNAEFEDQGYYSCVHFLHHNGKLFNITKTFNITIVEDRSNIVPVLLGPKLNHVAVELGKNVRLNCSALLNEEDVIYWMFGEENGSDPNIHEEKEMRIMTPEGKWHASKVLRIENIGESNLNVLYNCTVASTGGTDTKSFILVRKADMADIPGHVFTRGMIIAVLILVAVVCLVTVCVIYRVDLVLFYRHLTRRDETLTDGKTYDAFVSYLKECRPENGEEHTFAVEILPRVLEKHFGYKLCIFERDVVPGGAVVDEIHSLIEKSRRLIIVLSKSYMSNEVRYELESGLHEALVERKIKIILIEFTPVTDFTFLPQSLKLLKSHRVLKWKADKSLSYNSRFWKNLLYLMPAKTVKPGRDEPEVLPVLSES
T1 sequence (looked up) 2: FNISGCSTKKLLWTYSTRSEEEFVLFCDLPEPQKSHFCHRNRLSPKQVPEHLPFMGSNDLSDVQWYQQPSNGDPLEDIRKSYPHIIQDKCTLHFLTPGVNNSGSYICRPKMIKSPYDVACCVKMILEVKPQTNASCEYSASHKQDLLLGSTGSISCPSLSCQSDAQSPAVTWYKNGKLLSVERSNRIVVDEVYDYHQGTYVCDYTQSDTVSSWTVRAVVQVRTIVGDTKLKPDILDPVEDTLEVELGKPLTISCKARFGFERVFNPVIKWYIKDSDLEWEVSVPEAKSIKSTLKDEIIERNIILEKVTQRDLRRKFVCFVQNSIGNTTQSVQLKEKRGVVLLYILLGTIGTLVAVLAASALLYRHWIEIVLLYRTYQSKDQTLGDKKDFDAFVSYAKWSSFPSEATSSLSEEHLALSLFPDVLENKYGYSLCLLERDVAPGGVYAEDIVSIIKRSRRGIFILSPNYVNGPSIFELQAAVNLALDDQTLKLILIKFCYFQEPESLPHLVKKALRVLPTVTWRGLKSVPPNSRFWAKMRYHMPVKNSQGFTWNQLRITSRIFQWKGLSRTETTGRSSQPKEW

[2] = molecular target: T2, recombinant Human Fc gamma RI/CD64 Protein (R&D systems, 1257-FC-050, CF) (human, UniProt P12314 16-288); experiment: ELISA; antibody coated, Fc gamma receptor titrated
T2 construct: also called FcγRI/CD64; human Fc gamma receptor I (CD64)

[3] = molecular target: T3, recombinant Human Fc gamma RIIIA/CD16a Protein (R&D systems, 4325-FC-050; CF) (human, UniProt P08637 17-208, limits assumed); experiment: ELISA; antibody coated, Fc gamma receptor titrated
T3 construct: also called FcγRIIIa/CD16; human Fc gamma receptor IIIa (CD16)

[4] = molecular target: T4, recombinant biotinylated human FcRn (human, UniProt P55899 24-297; P61769 21-119, limits assumed, biotinylated (site not stated)); experiment: AlphaLISA competition at pH 6; competitor: human IgG on acceptor beads
T4 construct: also called human neonatal Fc receptor (FcRn); human Fc neonatal receptor

[5] = molecular target: T5, Biotinylated Recombinant Human PD-1/CD279-Fc Chimera, carrier-free, Biolegend #789406 (human, UniProt Q15116 25-167, biotinylated (site not stated)); experiment: ELISA; antibody coated, biotinylated human PD-1-Fc titrated
T5 construct: Bought reagent; also called recombinant biotinylated human PD-1; human PD1/CD279 ligand; Fc part of the bought chimera not given; not described

[6] = molecular target: T6, His-tagged human PD1, R&D #8986-PD (human, UniProt Q15116 25-167); experiment: BLI (Octet), antibody on AHC sensor, His-tagged human PD1 as analyte
T6 construct: Bought reagent; not shown: His tag

[7] = molecular target: T5, Biotinylated Recombinant Human …; experiment: ELISA; antibody coated on the plate, biotinylated human PD-1-Fc titrated in solution (x axis), streptavidin-HRP, signal at 450 nm
[8] = molecular target: T7, recombinant Human Fc gamma RIIA/CD32a (H167) Protein (R&D systems, 9595-CD-050, CF) (human, UniProt P12318 36-218); experiment: ELISA; antibody coated, Fc gamma receptor titrated
T7 construct: also called FcγRIIa/CD32a; human Fc gamma receptors IIa
T7 sequence (looked up): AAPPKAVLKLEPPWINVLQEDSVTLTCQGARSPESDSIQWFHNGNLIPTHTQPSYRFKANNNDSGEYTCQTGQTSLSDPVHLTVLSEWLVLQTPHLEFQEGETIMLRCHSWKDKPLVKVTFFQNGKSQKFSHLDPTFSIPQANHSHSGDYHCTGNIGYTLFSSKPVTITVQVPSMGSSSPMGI

[9] = molecular target: T8, recombinant Human Fc gamma RIIB/CD32b Avi-tag Protein (R&D systems, AVI1875-050, CF) (human, UniProt P31994 46-217); experiment: ELISA; antibody coated, Fc gamma receptor titrated
T8 construct: also called FcγRIIb/CD32b
T8 sequence (looked up): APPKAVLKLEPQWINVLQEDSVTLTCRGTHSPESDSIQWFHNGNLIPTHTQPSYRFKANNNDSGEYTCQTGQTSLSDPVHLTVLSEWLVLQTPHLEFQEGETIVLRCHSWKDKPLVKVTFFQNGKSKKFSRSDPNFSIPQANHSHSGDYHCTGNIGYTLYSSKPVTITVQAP

B1: IL-18 polypeptide C140 (SEQ ID NO: 72; N-terminal 4xG, E6K, V11I, C38A, K53A, T63A, C76A, C127A) (ligand)
chain: GGGGYFGKLKSKLSIIRNLNDQVLFIDQGNRPLFEDMTDSDARDNAPRTIFIISMYADSQPRGMAVAISVKCEKISTLSAENKIISFKEMNPPDNIKDTKSDIIFFQRSVPGHDNKMQFESSSYEGYFLAAEKERDLFKLILKKEDELGDRSIMFTVQNED
EC50, HEK-Blue IL18R reporter assay [1]: 2.5 pM

B3: Avelumab/Bavencio (antibody, human IgG1, lambda)
heavy: not shown
light: QSALTQPASVSGSPGQSITISCTGTSSDVGGYNYVSWYQQHPGKAPKLMIYDVSNRPSGVSNRFSGSKSGNTASLTISGLQAEDEADYYCSSYTSSSTRVFGTGTKVTVLGQPKANPTVTLFPPSSEELQANKATLVCLISDFYPGAVTVAWKADGSPVKAGVETTKPSKQSNNKYAASSYLSLTPEQWKSHRSYSCQVTHEGSTVEKTVAPTECS
notes: also called MSB-0010718C; PF-06834635
Kd [4]: 5.36 nM

B8: IL-18 polypeptide C142 (Y1M, E6K, V11I, C38A, K53A, T63A, C76A, C127A) (ligand)
chain: MFGKLKSKLSIIRNLNDQVLFIDQGNRPLFEDMTDSDARDNAPRTIFIISMYADSQPRGMAVAISVKCEKISTLSAENKIISFKEMNPPDNIKDTKSDIIFFQRSVPGHDNKMQFESSSYEGYFLAAEKERDLFKLILKKEDELGDRSIMFTVQNED
EC50, HEK-Blue IL18R reporter assay [1]: 0.02 pM

B9: Durvalumab/Imfinzi (antibody, human IgG1, kappa)
heavy: EVQLVESGGGLVQPGGSLRLSCAASGFTFSRYWMSWVRQAPGKGLEWVANIKQDGSEKYYVDSVKGRFTISRDNAKNSLYLQMNSLRAEDTAVYYCAREGGWFGELAFDYWGQGTLVTVSSASTKGPSVFPLAPSSKSTSGGTAALGCLVKDYFPEPVTVSWNSGALTSGVHTFPAVLQSSGLYSLSSVVTVPSSSLGTQTYICNVNHKPSNTKVDKRVEPKSCDKTHTCPPCPAPEFEGGPSVFLFPPKPKDTLMISRTPEVTCVVVDVSHEDPEVKFNWYVDGVEVHNAKTKPREEQYNSTYRVVSVLTVLHQDWLNGKEYKCKVSNKALPASIEKTISKAKGQPREPQVYTLPPSREEMTKNQVSLTCLVKGFYPSDIAVEWESNGQPENNYKTTPPVLDSDGSFFLYSKLTVDKSRWQQGNVFSCSVMHEALHNHYTQKSLSLSPGK
light: EIVLTQSPGTLSLSPGERATLSCRASQRVSSSYLAWYQQKPGQAPRLLIYDASSRATGIPDRFSGSGSGTDFTLTISRLEPEDFAVYYCQQYGSLPWTFGQGTKVEIKRTVAAPSVFIFPPSDEQLKSGTASVVCLLNNFYPREAKVQWKVDNALQSGNSQESVTEQDSKDSTYSLSSTLTLSKADYEKHKVYACEVTHQGLSSPVTKSFNRGEC
notes: also called MEDI-4736
Kd [2]: 2.34 nM
Kd [8]: 160 nM
Kd [3]: 234 nM
Kd [9]: 233 nM
Kd [4]: 8.31 nM

B10: IL-18 polypeptide C141 (SEQ ID NO: 71; N-terminal G, E6K, V11I, C38A, K53A, T63A, C76A, C127A) (ligand)
chain: GYFGKLKSKLSIIRNLNDQVLFIDQGNRPLFEDMTDSDARDNAPRTIFIISMYADSQPRGMAVAISVKCEKISTLSAENKIISFKEMNPPDNIKDTKSDIIFFQRSVPGHDNKMQFESSSYEGYFLAAEKERDLFKLILKKEDELGDRSIMFTVQNED
EC50, HEK-Blue IL18R reporter assay [1]: 1.68 pM

The next lines start with the values.

Kd [2]: 0.593 nM
Kd [3]: 1660 nM
Kd [4]: 7.45 nM
B2: Pembrolizumab/Keytruda (antibody, human IgG4 S228P, kappa)
heavy: not shown
light: EIVLTQSPATLSLSPGERATLSCRASKGVSTSGYSYLHWYQQKPGQAPRLLIYLASYLESGVPARFSGSGSGTDFTLTISSLEPEDFAVYYCQHSRDLPLTFGGGTKVEIKRTVAAPSVFIFPPSDEQLKSGTASVVCLLNNFYPREAKVQWKVDNALQSGNSQESVTEQDSKDSTYSLSSTLTLSKADYEKHKVYACEVTHQGLSSPVTKSFNRGEC
notes: also called Lambrolizumab; MK-3475

Kd [5]: 0.0407 nM
Kd [6]: 23.5 nM
koff [6]: 0.0077 s⁻¹
kon [6]: 342000 M⁻¹ s⁻¹
EC50 (read off the curve) [7]: ~0.06 nM
B4: LZM-009 (antibody, V domains shown)
VH: QVQLVQSGAEVKKPGASVKVSCKASGYTFTSYYMYWVRQAPGQGLEWMGGVNPSNGGTNFNEKFKSRVTITADKSTSTAYMELSSLRSEDTAVYYCARRDYRYDMGFDYWGQGTTVTVSS
VL: EIVLTQSPATLSLSPGERATISCRASKGVSTSGYSYLHWYQQKPGQAPRLLIYLASYLESGVPARFSGSGSGTDFTLTISSLEPEDFATYYCQHSRELPLTFGTGTKVEIK
notes: full antibody with an Fc region (K248, EU numbering); also called anti-PD-1 antibody LZM-009

EC50, HEK-Blue IL18R reporter assay [1]: 0.08 pM
B5: IL-18 polypeptide C182 (E6K, V11I, C38A, K53A, T63A, C76A, C127A, V153Y) (ligand)
chain: B8 chain with M1Y, V153Y

EC50, HEK-Blue IL18R reporter assay [1]: 0.04 pM
B6: IL-18 polypeptide C184 (E6R, V11I, C38A, K53A, T63A, C76A, C127A) (ligand)
chain: B8 chain with M1Y, K6R

EC50, HEK-Blue IL18R reporter assay [1]: 0.1 pM
B7: IL-18 polypeptide C183 (SEQ ID NO: 69; E6K, V11I, C38A, M51G, K53A, T63A, C76A, C127A) (ligand)
chain: B8 chain with M1Y, M51G

EC50, HEK-Blue IL18R reporter assay [1]: 14 pM
B11: IL-18 polypeptide C192 (SEQ ID NO: 70; N-terminal G, E6K, V11I, C38A, M51G, K53A, T63A, C76A, C127A) (ligand)
chain: B10 chain with M52G
